Data reported in US20220048996A1 (F STAR BETA, published 2022).
Changes are numbered by the printed parent chain. Each block holds one binder with its values, some of them ahead of it.

Tests used:
[1] = molecular target: T1, cCD137-mFc-Avi (cynomolgus monkey); assay: SPR, antibody captured via anti-human Fc, dimeric antigen flowed, 1:1 fit
T1 construct: 139 used; also called cyno CD137-mFc-Avi; recombinant cyno CD137
T1 chain: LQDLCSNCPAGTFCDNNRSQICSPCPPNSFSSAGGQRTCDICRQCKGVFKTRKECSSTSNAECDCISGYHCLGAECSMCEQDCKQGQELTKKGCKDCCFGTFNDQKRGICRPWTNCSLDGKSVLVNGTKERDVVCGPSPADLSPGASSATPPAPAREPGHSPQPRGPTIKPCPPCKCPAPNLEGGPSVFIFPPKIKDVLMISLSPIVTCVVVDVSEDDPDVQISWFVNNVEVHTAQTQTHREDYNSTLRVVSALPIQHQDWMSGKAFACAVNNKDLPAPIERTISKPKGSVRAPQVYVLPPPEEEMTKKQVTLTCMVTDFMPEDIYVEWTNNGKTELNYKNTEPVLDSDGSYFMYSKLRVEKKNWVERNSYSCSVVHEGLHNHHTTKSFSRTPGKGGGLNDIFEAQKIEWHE
Experimental: (§1) For CD137 affinity determination, a Biacore CM5 chip (GE Healthcare) was coated with anti-human Fc using a Human Antibody Capture Kit (GE Healthcare) according to manufacturer's conditions, to a surface density of approximately 4000 RU. […] Human or cynomolgus CD137 (hCD137-mFc-Avi or cCD137-mFc-Avi) was flowed over at a range of concentrations in a three-fold dilution series starting at 200 nM, at a flow rate of 70 μl/min. The association time was 2 min and the dissociation time was 8 min. Running buffer was HBS-EP (GE Healthcare BR100188). Flow cells were regenerated by injecting 3M magnesium chloride at a flow rate of 30 μl/min for 30 seconds.
(§2) The binding kinetics were fit with a 1:1 Langmuir model to generate binding association (kₐ) and dissociation (kd) rates. Equilibrium binding constants (KD) were calculated by dividing the dissociation rate by the association rate for each sample. Data analysis was performed with BiaEvaluation software version 3.2.

[2] = molecular target: T2, hCD137-mFc-Avi (human); assay: as above
T2 construct: Dimer; a biotinylated version was used where the text says so; also called human CD137-mFc-Avi; hCD137-mFc-Avi-Bio
Experimental: as §1, §2

[3] = molecular target: T3, hOX40-mFc (human); assay: SPR, antibody captured via anti-human Fab, dimeric antigen flowed, 1:1 fit
T3 construct: Dimeric; also called human OX40-mFc
T3 chain: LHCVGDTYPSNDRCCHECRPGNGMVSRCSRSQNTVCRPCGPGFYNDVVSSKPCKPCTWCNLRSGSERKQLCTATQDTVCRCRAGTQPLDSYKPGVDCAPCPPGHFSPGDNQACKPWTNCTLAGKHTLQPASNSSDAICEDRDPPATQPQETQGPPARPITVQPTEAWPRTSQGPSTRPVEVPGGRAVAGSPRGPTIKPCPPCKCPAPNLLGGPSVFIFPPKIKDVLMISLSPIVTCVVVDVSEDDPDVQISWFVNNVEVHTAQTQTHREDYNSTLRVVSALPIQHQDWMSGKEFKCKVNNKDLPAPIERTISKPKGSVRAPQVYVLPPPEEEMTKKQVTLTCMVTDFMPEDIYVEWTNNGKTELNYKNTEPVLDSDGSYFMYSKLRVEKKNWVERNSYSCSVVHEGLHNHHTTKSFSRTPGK
Experimental: (§3) For OX40 affinity determination a Biacore CM5 chip was coated with anti-human Fab using a Human Fab Capture Kit (GE Healthcare 28958325) according to manufacturer's conditions, to a surface density of approximately 8000 RU. […] The association time was 2 min and the dissociation time was 8 min. Running buffer was HBS-EP. Flow cells were regenerated by injecting glycine-HCl at pH 2.1 at a flow rate of 30 μl/min for 30 seconds.
as §2

[4] = molecular target: T4, cOX40-mFc (cynomolgus); assay: as above
T4 construct: Dimeric; also called cyno OX40-mFc
T4 chain: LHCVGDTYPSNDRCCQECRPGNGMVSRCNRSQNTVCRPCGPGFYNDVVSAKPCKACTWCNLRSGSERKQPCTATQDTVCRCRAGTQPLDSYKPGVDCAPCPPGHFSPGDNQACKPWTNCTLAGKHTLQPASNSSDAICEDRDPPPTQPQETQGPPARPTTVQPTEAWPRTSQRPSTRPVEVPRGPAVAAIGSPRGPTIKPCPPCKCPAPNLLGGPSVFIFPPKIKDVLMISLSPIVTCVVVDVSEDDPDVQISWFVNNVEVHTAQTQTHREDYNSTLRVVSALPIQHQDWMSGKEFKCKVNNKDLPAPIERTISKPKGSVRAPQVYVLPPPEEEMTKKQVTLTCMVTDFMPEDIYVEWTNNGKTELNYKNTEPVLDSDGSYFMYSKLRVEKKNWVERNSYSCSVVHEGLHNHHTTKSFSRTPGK
Experimental: as §3, §2

[5] = molecular target: T5, human CD137 expressed on DO11.10 cells (DO11.10-hCD137) (human, UniProt Q07011 24-255); assay: cell-based or functional assay
Target sequence in this assay (Q07011 24-255): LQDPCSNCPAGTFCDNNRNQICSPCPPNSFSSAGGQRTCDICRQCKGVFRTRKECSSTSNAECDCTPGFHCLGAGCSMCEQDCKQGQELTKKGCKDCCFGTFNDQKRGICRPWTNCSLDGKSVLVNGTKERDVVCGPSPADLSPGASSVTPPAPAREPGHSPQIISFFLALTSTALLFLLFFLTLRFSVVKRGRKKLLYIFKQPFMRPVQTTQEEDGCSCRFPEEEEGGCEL

[6] = molecular target: T6, human OX40 expressed on DO11.10 cells (DO11.10-hOX40) (human, UniProt P43489 29-277); assay: cell-based or functional assay
T6 sequence: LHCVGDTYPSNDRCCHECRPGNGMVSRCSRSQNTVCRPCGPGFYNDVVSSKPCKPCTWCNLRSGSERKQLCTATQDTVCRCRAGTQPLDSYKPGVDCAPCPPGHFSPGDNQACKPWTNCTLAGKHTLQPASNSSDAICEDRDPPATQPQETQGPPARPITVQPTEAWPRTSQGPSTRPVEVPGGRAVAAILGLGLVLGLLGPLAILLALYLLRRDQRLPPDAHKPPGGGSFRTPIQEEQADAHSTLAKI

[7] = molecular target: T5, human CD137 expressed on DO11.10 cells …; assay: flow cytometry on DO11.10 cells expressing the target
Experimental: (§4) 50 μl of the antibody dilutions were added to the wells containing cells (final volume 100 μl) and incubated at 4° C. for 1 hour. […] The plates were washed and resuspended in 100 μl of PBS containing DAPI (Biotium, cat no 40043) at 1 μg/ml. The plates were analysed using a Canto II flow cytometer (BD Bioscience) and the data analysed using FlowJo. Dead cells were identified by their higher fluorescence on the UV (405 nm/450/50) channel and excluded from analysis. […] The GMFI data was fit using log (agonist) vs response (three parameters) in Graph Pad Prism Software to generate EC₅₀ values.

[8] = molecular target: T7, cynomolgus OX40 expressed on DO11.10 cells (DO11.10-cOX40) (cynomolgus, UniProt P43489 29-277 (human entry)); assay: as above
T7 chain: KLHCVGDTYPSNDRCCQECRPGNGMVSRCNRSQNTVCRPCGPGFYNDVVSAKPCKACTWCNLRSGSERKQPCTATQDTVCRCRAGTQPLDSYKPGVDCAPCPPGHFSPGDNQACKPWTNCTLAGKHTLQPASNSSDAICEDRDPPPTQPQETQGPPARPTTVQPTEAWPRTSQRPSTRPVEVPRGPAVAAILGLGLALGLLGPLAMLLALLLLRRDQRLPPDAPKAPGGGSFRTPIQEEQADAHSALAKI
Experimental: as §4

[9] = molecular target: T8, cynomolgus CD137 expressed on DO11.10 cells (DO11.10-cCD137) (cynomolgus monkey, UniProt Q07011 24-255 (human entry)); assay: as above
T8 chain: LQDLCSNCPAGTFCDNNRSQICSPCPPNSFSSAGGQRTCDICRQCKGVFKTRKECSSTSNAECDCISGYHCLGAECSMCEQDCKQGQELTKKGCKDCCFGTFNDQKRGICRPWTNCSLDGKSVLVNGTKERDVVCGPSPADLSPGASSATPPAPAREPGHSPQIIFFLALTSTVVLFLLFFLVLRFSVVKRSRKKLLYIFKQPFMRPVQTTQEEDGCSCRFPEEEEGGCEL
Experimental: as §4

[10] = molecular target: T6, human OX40 expressed on DO11.10 cells …; assay: as above
Experimental: as §4

[11] = molecular target: T5, human CD137 expressed on DO11.10 cells …; assay: cell-based or functional assay; remark: listed apart in the source

B3: FS20-22-49AA/FS30-10-3 (bispecific antibody, human IgG1, kappa, L234A L235A, V domains shown)
VH: EVQLLESGGGLVQPGGSLRLSCAASGFTFSSYDMSWVRQAPGKGLEWVSDIDPTGSKTDYADSVKGRFTISRDNSKNTLYLQMNSLRAEDTAVYYCARDLNVYGFDYWGQGTLVTVSS
VL: EIVLTQSPGTLSLSPGERATLSCRASQSVSSSYLAWYQQKPGQAPRLLIYGASSRATGIPDRFSGSGSGTDFTLTISRLEPEDFAVYYCQQSYSYPVTFGQGTKVEIKR
notes: IgG1 with LALA; also called OX40/CD137 mAb^2
Kd [1]: 318 pM
Kd [2]: 342 pM
Kd [3]: 285 pM
Kd [4]: 1110 pM
EC50 of mIL-2 release, DO11.10-hCD137 assay, crosslinked [5]: 6100 pM
Emax of mIL-2 release, DO11.10-hCD137 assay, crosslinked [5]: 17000 pg/mL
SEA assay (PBMC), hIL-2 max response, crosslinked [6]: 33900 pg/mL
SEA assay (PBMC), hIL-2 max response, no crosslinker [6]: 34900 pg/mL
SEA assay (PBMC), hIL-2 release EC50, crosslinked [6]: 380 pM
SEA assay (PBMC), hIL-2 release EC50, no crosslinker [6]: 290 pM
EC50 [7]: 120 pM
EC50 [8]: 394 pM
EC50 [9]: 68.2 pM
EC50 [10]: 175 pM

B4: G1AA/FS30-10-16 (antibody, human IgG1, kappa, L234A L235A, V domains shown)
VH: B3 VH with N101L
VL: B3 VL
CD8+ T cell activation assay, hIL-2 release EC50, crosslinked [11]: 3880 pM

More lines, now with the values ahead:

Kd [1]: 6420 pM
Kd [2]: 3850 pM
Kd [3]: 385 pM
Kd [4]: 1630 pM
EC50 of mIL-2 release, DO11.10-hCD137 assay, crosslinked [5]: 13400 pM
Emax of mIL-2 release, DO11.10-hCD137 assay, crosslinked [5]: 18100 pg/mL
SEA assay (PBMC), hIL-2 max response, crosslinked [6]: 30700 pg/mL
SEA assay (PBMC), hIL-2 max response, no crosslinker [6]: 29200 pg/mL
SEA assay (PBMC), hIL-2 release EC50, crosslinked [6]: 500 pM
SEA assay (PBMC), hIL-2 release EC50, no crosslinker [6]: 510 pM
EC50 [7]: 258 pM
EC50 [8]: 355 pM
EC50 [9]: 110 pM
EC50 [10]: 201 pM
B1: FS20-22-49AA/FS30-5-37 (bispecific antibody, human IgG1, kappa, L234A L235A, V domains shown)
VH: EVQLLESGGGLVQPGGSLRLNCAASGFTFSSYAMSWVRQAPGKGLEWVSAISGSGGSTYYADSVKGRFTISRDNSKNTLYLQMNSLRAEDTAVYYCARSYDKYWGSSIYSGLDYWGQGTLVTVSS
VL: EIVLTQSPGTLSLSPGERATLSCRASQSVSSSYLAWYQQKPGQAPRLLIYGASSRATGIPDRFSGSGSGTDFTLTISRLEPEDFAVYYCQQYYSYYPVTFGQGTKVEIKR
notes: as for B3

binding result [7]: no binding
binding result [9]: no binding
B2: FS20-22-49AA/4420 (antibody, human IgG1, kappa, L234A L235A)
heavy: EVKLDETGGGLVQPGRPMKLSCVASGFTFSDYWMNWVRQSPEKGLEWVAQIRNKPYNYETYYSDSVKGRFTISRDDSKSSVYLQMNNLRVEDMGIYYCTGSYYGMDYWGQGTSVTVSSASTKGPSVFPLAPSSKSTSGGTAALGCLVKDYFPEPVTVSWNSGALTSGVHTFPAVLQSSGLYSLSSVVTVPSSSLGTQTYICNVNHKPSNTKVDKKVEPKSCDKTHTCPPCPAPEAAGGPSVFLFPPKPKDTLMISRTPEVTCVVVDVSHEDPEVKFNWYVDGVEVHNAKTKPREEQYNSTYRVVSVLTVLHQDWLNGKEYKCKVSNKALPAPIEKTISKAKGQPREPQVYTLPPSRDEYWDQEVSLTCLVKGFYPSDIAVEWESNGDEQFAYKTTPPVLDSDGSFFLYSKLTVDQYRWNPADYFSCSVMHEALHNHYTQKSLSLSPG
light: DVVMTQTPLSLPVSLGDQASISCRSSQSLVHSNGNTYLRWYLQKPGQSPKVLIYKVSNRFSGVPDRFSGSGSGTDFTLKISRVEAEDLGVYFCSQSTHVPWTFGGGTKLEIKRTVAAPSVFIFPPSDEQLKSGTASVVCLLNNFYPREAKVQWKVDNALQSGNSQESVTEQDSKDSTYSLSSTLTLSKADYEKHKVYACEVTHQGLSSPVTKSFNRGEC
notes: also called OX40/FITC mock mAb^2; FS20-22-49 Fcab in mock (4420 LALA) mAb^2 format

Kd [1]: 7240 pM
Kd [2]: 255 pM
Kd [3]: 370 pM
Kd [4]: 1020 pM
EC50 of mIL-2 release, DO11.10-hCD137 assay, crosslinked [5]: 9500 pM
Emax of mIL-2 release, DO11.10-hCD137 assay, crosslinked [5]: 17200 pg/mL
SEA assay (PBMC), hIL-2 max response, crosslinked [6]: 23700 pg/mL
SEA assay (PBMC), hIL-2 max response, no crosslinker [6]: 24900 pg/mL
SEA assay (PBMC), hIL-2 release EC50, crosslinked [6]: 2330 pM
SEA assay (PBMC), hIL-2 release EC50, no crosslinker [6]: 1360 pM
EC50 [7]: 290 pM
EC50 [8]: 368 pM
EC50 [9]: 107 pM
EC50 [10]: 152 pM
B5: FS20-22-49AA/FS30-10-12 (bispecific antibody, human IgG1, kappa, L234A L235A, V domains shown)
VH: B3 VH with N101T
VL: B3 VL
notes: as for B3
